The values below come from US9074002B2, “PTP1B inhibitors” (Cold Spring Harbor Laboratory, priority 2009, dated 2015).

One assay has as its target T1, PTP1B-OX (Homo sapiens, UniProt P18031).
T1 construct: made in house; host or cells: E. coli BL21 (pET19b)
T1 sequence (P18031 3-277): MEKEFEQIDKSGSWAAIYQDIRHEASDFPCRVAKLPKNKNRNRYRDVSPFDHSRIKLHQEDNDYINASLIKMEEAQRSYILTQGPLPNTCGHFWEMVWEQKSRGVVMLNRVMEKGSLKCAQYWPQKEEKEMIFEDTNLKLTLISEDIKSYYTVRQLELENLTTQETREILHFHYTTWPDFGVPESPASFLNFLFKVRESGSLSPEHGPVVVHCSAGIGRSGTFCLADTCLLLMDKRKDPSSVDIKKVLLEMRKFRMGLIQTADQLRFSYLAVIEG
The assay is described as follows: Inhibition of reactivation of reversibly oxidized PTP1B by reducing agent (RCML phosphatase assay). Type of assay: biochemical. Particulars: PTP1B oxidized with H2O2, buffer exchange, TCEP added; FIG. 2. As for the experimental part:
Applicant's hypothesis was that scFvs that are able to bind to and stabilize the oxidized conformation of PTP1B in solution would inhibit reactivation by reducing agent, but have no direct inhibitory effect on phosphatase activity in assays in vitro. Activity was measured using ^32P-labeled pTyr-Reduced Carboxamidomethylated and Maleylated Lysozyme as substrate. Applicant established conditions in which wild type PTP1B could be reversibly oxidized in vitro. PTP1B was inactivated following addition of H2O2. […] Applicant validated this approach further, by testing the effects of expressing one of the scFvs (scFv45) as a single chain antibody fragment “intrabody” to PTP1B, using 293T cells as the expression system. This intrabody was expressed transiently and then tested for effects on insulin signaling, focusing initially on the tyrosine phosphorylation status of the beta-subunit of the insulin receptor and insulin receptor substrate (IRS-1).
Reduced carboxamidomethylated and maleylated lysozyme (RCML) was labeled with ^32P using recombinant GST-FER kinase to stoichiometries up to 0.8 (mol ^32P incorporated/mol of protein). This ^32P-Labeled phospho-tyrosyl RCML was used as the substrate in the in-solution phosphatase assay for screening the conformation sensor scFvs. Recombinant PTP1B was reversibly oxidized and transiently inactivated with H2O2 (5× molar excess of the protein). […] Purified bacterially expressed scFvs (100× molar excess of PTP1B) were incubated with PTP after H2O2 treatment and its removal and the effect of individual scFv on stabilizing the reversibly oxidized conformation was assessed by the phosphatase assay under reducing condition.
In a different experiment, conditions were established in which wild type PTP1B could be reversibly oxidized in vitro. […] Addition of the reducing agent alone had no substantial effect on PTP1B activity (FIGS. 1 and 2, “PTP1B”).

For assay [1], the system named is tyrosine phosphorylation of insulin receptor β (IRβ) and insulin receptor substrate-1 (IRS-1) in 293T cells. Briefly: Insulin signaling in 293T cells expressing intrabody: tyrosine phosphorylation of IRβ and IRS-1. Type of assay: cell-based. The text has this:
In order to validate this approach further, Applicant tested the effects of expressing one of these (scFv45) as a single chain antibody fragment “intrabody” to PTP1B, using 293T cells as a convenient expression system. This intrabody was expressed transiently and then tested for effects on insulin signaling, focusing initially on the tyrosine phosphorylation status of the β-subunit of the insulin receptor and IRS-1 (FIG. 2). Initial indications are that for both substrates expression of the intrabody had no impact on the basal level of tyrosyl phosphorylation, but it enhanced and extended the time course of insulin-induced phosphorylation, consistent with our proposed mechanism of action.
Intrabody scFv45 was transfected in 293T cells, serum starved and insulin stimulated to investigate the physiological relevance of this intrabody expression in mammalian cells in the context of PTP1B mediated regulation of insulin signaling (or insulin signaling mediated redox regulation of PTP1B activity). Insulin stimulated 293T cells with or without the intrabody were harvested in RIPA buffer (25 mM HEPES, pH 7.5, 150 mM NaCl, 0.25% Deoxychloate, 10% Glycerol, 25 mM NaF, 10 mM MgCl2, 1 mM EDTA, 1% TritonX-100, 0.5 mM PMSF, 10 mM Benzamidine, protease inhibitor cocktail, 1 mM sodium vanadate) and the cell lysates were examined for total tyrosine phosphosphorylation pattern using phospho-tyrosine specific antibodies (FIGS. 3 and 4).

B1: scFv57: scFv binding PTP1B-OX, SEQ ID NO: 27 and 90 (protein)
scFv: MKKTAIAIAVALAGFATVAQAALTQPSSVSANPGAFNKITCSGSSSAYGYGWNQQKSPGSAPVTVIYNNNKRPSNIPSRFSGSKSGSTGTLTITGDQDEDEDFYFCGSEYSSTDAIFGAGTTLTVLGQSSRSSTVTLDESGGGLQAPGGALSLVCKASGFTFSSYDMGWIPQAPGKGLEYVAGITDNGIYASYGSAVDGRATISRDNRQSSVKLQLNNLKADDTGTYYCARDDGSGWTGNSIDAWGHGTEVIVSSTSGQAGQHHHHHHGAYPYDVPDYAS
Consider B1, for which, in the assay with PTP1B-OX, the “inhibition of reactivation of PTP1B-OX by reducing agent (restoration of PTP1B activity after reversible oxidation)” value is recorded as “substantial inhibition of the restoration of PTP1B activity”.

B2: scFv45: conformation-sensor scFv binding PTP1B-OX, SEQ ID NO: 26 and 78; expressed as intrabody (protein)
scFv: MKKTAIAIAVALAGFATVAQAALTQPSSVSANPGGTVKITCSGSSSAYGYGWYQQKSPGSAPVTVIYNNNKRPSNIPSRFSGSKSGSTGTLTITGVQAEDEAVYFCGSEDSSTDAIFGAGTTLTVLGQSSRSSTVTLDESGGGLQAPGGALSLVCKASGFTFSSYDMGWIRQAPGKGLEYVAGITDNGRYASYGSAVDGRATISRDNGQSSVRLQLNNLRAEDTGTYYCARDDGSGWTGNSIDAWGHGTEVIVSSTSGQAGQHHHHHHGAYPYDVPDYAS
In the case of B2, the “inhibition of reactivation of PTP1B-OX by reducing agent (restoration of PTP1B activity after reversible oxidation)” value with PTP1B-OX was “substantial inhibition of the restoration of PTP1B activity”. In addition, the “basal level of tyrosyl phosphorylation of insulin receptor β-subunit and IRS-1” value in assay [1] (293T cells expressing intrabody, no insulin) is recorded as “no impact”. Further, the “tyrosine phosphorylation of insulin receptor β (IRβ)” value in assay [1] (293T cells overexpressing intrabody, insulin stimulated, FIG. 3) was “increased and prolonged tyrosine phosphorylation”. For the same molecule, the “tyrosine phosphorylation of insulin receptor substrate-1 (IRS-1)” value in assay [1] (293T cells overexpressing intrabody, insulin stimulated, FIG. 4) was “increased and prolonged tyrosine phosphorylation”.
